Data on two molecules can be found in paper PMC4934754, “HCF1 and OCT2 Cooperate with EBNA1 To Enhance OriP-Dependent Transcription and Episome Maintenance of Latent Epstein-Barr Virus”.

For one series, the target named is T1, His-OCT2 DBD (HTRF) (UniProt P09086-3 175-345).
T1 sequence: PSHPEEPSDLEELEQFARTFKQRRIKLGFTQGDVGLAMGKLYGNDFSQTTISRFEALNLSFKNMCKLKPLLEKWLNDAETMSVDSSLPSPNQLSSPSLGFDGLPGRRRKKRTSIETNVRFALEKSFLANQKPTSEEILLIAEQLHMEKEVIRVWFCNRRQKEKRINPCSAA
In words: HTRF; 0-80 nM OCT2; Buffer not given (EMSA as in cited ref. 32; HTRF and ALPHA in similar conditions; 1 h incubation for HTRF). Conditions: protein: recombinant; label: 5' biotin, streptavidin Eu3+ cryptate.

The target in series [1] is T2, EBNA1 DBD;OCT2 DBD (Epstein-Barr virus;human?, UniProt P03211;P09086-3 459-607;175-345, |). As to the kind of experiment: HTRF; 15 nM His-EBNA1, 2.5-40 nM unlabeled OCT2; OCT2 stimulates EBNA1 binding; Buffer not given (EMSA as in cited ref. 32; HTRF and ALPHA in similar conditions; 1 h incubation for HTRF). The note with it: protein: recombinant;recombinant; tags: His;none (His-SUMO removed by SUMO protease); copies: 1;1; label: 5' biotin, streptavidin Eu3+ cryptate.

For the next series, the target named is EBNA1 DBD (Epstein-Barr virus, UniProt P03211 459-607). In words: EMSA; no OCT2; low nanomolar affinity, two major species; Buffer not given (EMSA as in cited ref. 32; HTRF and ALPHA in similar conditions; 1 h incubation for HTRF). The note with it: protein: recombinant; tags: His; label: 32P.
The next series concerns the target T3, OCT2 DBD (UniProt P09086-3 175-345).
T3 sequence: T1 sequence
In words: EMSA; single major species at 40 nM OCT2, larger complex at higher concentration; Buffer not given (EMSA as in cited ref. 32; HTRF and ALPHA in similar conditions; 1 h incubation for HTRF). The note with it: protein: recombinant; tags: none (His-SUMO removed by SUMO protease); label: 32P.

Series [2] deals with T2, EBNA1 DBD;OCT2 DBD. As to the kind of experiment: EMSA; EBNA1 titration with 40 nM OCT2 or OCT2 titration with 15 nM EBNA1; saturated complex distinct from EBNA1 alone; Buffer not given (EMSA as in cited ref. 32; HTRF and ALPHA in similar conditions; 1 h incubation for HTRF). Conditions: protein: recombinant;recombinant; tags: His;none (His-SUMO removed by SUMO protease); copies: 1;1; label: 32P.

T2 sequence (P03211 459-607, one chain of several): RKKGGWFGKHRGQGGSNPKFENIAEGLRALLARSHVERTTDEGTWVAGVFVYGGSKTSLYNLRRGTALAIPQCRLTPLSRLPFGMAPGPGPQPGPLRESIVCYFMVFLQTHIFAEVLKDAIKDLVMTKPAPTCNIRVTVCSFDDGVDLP
EBNA1 DBD, sequence (P03211 459-607): as the sequence (P03211 459-607, one chain of several) above

B1: 2xFR (60 bp), biotin (dsDNA)
DNA 1: ATTAGGATAGCCTATGCTACCCAGATATAGATTAGGATAGCATATGCTACCCAGATATAG
DNA 2: CTATATCTGGGTAGCATATGCTATCCTAATCTATATCTGGGTAGCATAGGCTATCCTAAT
Take B1: the binding result with His-OCT2 DBD (HTRF) and with EBNA1 DBD;OCT2 DBD [1] was “binds” each time.

B2: 2xFR (60-mer), 32P (dsDNA)
DNA 1: B1 DNA 1
DNA 2: B1 DNA 2
Turning to B2, the binding result with EBNA1 DBD, in the series with OCT2 DBD and with EBNA1 DBD;OCT2 DBD [2] was “binds” each time.
